Laboratory results reported in the supplement of paper PMC12764529.
± gives the half width of the 95% confidence interval.

Experiment: folding stability dG unfold from trypsin proteolysis; higher = more stable
In short: (§1)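 Digests were run with trypsin and chymotrypsin at 11 concentrations in threefold dilutions, plus a no-protease condition, on designed mini-proteins in a PA-tagged cDNA display construct. The mini-proteins were under 80 residues, had no cysteine, and were kept only when AlphaFold2 dimer inter-PAE was above 15. After sequencing, Bayesian fitting of the counts gave K50, from which unfolding free energy was derived against a sequence-predicted unfolded-state K50 and a shared folded-state K50, per protease or combined.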

Sequence	folding stability dG unfold [kcal/mol]
SAGGSAGGSKKVEIKVKVKITNENGETLEVTATIVFDEKTGELYIYDEKTGKVYKISLDDIEPSAGGSAGGS [r12_772_TrROS_Hall]	2.03 ± 0.082
SAGGSAGGIYIFFPPEDLEPIAPFTITIEVKRRDPDGDEPQPRKQTIPIRIYRAPNNNLMIEPGSAGGSAGG [r6_278_TrROS]	0.742 ± 0.11
SAGGKKKTAEELAEELKKKLEELGFKVVKIEKLPDGTVLITFEDGYVIKFDVKTGKITIMPKEELEKLSAGG [r13_717_TrROS_Hall]	1.62 ± 0.11
SAGGFRIERDGDYLRIEIRVNDPPGQPVEEAKNIMKQLFGFKDIKVDEIEPNPNGQAEIEIEIPFPKSAGGS [r16_234_TrROS]	0.658 ± 0.13
SASNKPRTIEVPIMIPPDDLKEHSPEEFIDWIANELGLPPGKDIKIDVDIEPFEHDGRPYYIIPARIQVSAG [r14_334_TrROS]	-0.362 ± 0.2
SAGGSAGGEDKYLVVEFTVPEGKAEEFIAEVKKKIPPNWKIERVEIVEKTEDGLYRVRVVLKPGSAGGSAGG [r6_340_TrMRF]	4.5 ± 0.14
SAGKKQEVTIMIPIRGPAQAREQVEEFANDFPIKPTRVHPNPNKNHYWVMVTMKVPGAKIKIMIWIPPSAGG [r19_262_TrROS]	2.94 ± 0.11
MVELVEVTRENGLVTVTVANPIPGATLTVEVRDPEGKVLASSTSPSPTVTVTAEIPPDEDFSVTVTQTPPAS [r1_382_JUSTAS]	3.43 ± 0.14
SAGGSAGGSAGDEKYTLTVTIPVPKNAPVLVGAEKGYEVIDLNPDAPVEEGYITVKVEFGSAGGSAGGSAGG [r11_701_TrMRF]	-0.376 ± 0.086
SAGGKKFKIKEITITYNPDADTVTMTVKLDDGTTVELTFNKETKKLTVKVINKDTGEEKEFEFTLPDSAGGS [r8_363_TrROS_Hall]	3.1 ± 0.17
SAGGSAKVIMFPSLEEALDLAKEAMGHGKPIQIFLPDGYMIEIEVKPDPDGKPKIDIKWRKLPPDDSAGGSA [r15_761_TrROS]	2.02 ± 0.13
SAGGKEIEELAKKLAEELGVEVVKVEVEKVGPDTVKVTVTLKDGKKIKIEIKKKKDGSYEIKVEIEPSAGGS [r8_284_TrROS_Hall]	3.08 ± 0.19
SAGKSIKIPYIIRFPSPNGEPHLMRIKEVTINPKPGMVKIKFQMPGKKQTHTVPPNNIEILPDPEEILKSAG [r5_15_TrROS]	0.116 ± 0.22
SAGGSAGGSKITSIQPHDGFWRIEIKPDGKPQERWINMDELPPNIKIPPGYKVKIEPFSPGDMSAGGSAGGS [r12_1005_TrROS]	-0.0148 ± 0.14
SAGGSAGGSAGMKVEIEVYELPGGERPVKITVTYENKPKEYEKEAETEEEAEEFAKELLESAGGSAGGSAGG [r11_560_JUSTAS]	-0.237 ± 0.23
SAGGGSYTIVVELGDKKVVFEIDKEEAVEEAVAKLPELGLEVEVLKKEKVLNEDGKPSVLVEVKVKPSAGGS [r8_336_TrMRF]	-0.663 ± 0.17
SAGGLSGEAKLVEAEFEPETGTVRVFAEAGDELLTFEFKGTPFLPPIPASISPESLEKDEPVIRVSGSAGGS [r16_809_TrMRF]	0.597 ± 0.059
SAGGSAGGSASSVPARLPDATVLEVTTDPATGLQTALLRFPDGSEVVVTHYPDGSVEVRPLSAGGSAGGSAG [r3_348_JUSTAS]	1.84 ± 0.062
SAGGSAKTISIIIPFKGLTPEQAIEIAKELEKLLGTKAKIESIPGKGYILVTLELPNKTSYIIIPGSAGGSA [r15_168_TrMRF]	1.81 ± 0.041
SAGGSAGGSAMTFKSPEEAKKAAEELEKKTGYKIKITKIEVNEDGEKTVKIEILPPGEKLKSAGGSAGGSAG [r3_59_TrROS_Hall]	-0.238 ± 0.092
SMRIHDSNGQSYTIMIRTPDPNVTPEKIVKAIDEAGYKVTEIQRPPEKGHVHINIRVRDRERAIEAIKELSA [r9_1154_TrROS]	0.231 ± 0.12

Sequence	folding stability dG unfold [kcal/mol]
SAGGSAGGSAGGWNIQVNPDNLKPGKEYRISITHPNGPPIPFEVRLKADGDGDWEFKIESAGGSAGGSAGGS [r10_390_TrROS]	-0.0699 ± 0.059
SAGGSAGGSGPNIKVSSSTSTYTLPNGKKVTVKTIVIETENSKYLIVVLTDPNGKSIVFIKPLSAGGSAGGS [r12_213_TrMRF]	3.21 ± 0.23
SAGMSLVPLEELARAWAEERGLPVLDVEVPESRSPATRHVTITLTLRDPATGALTTETRELVIPEEELGSAG [r5_421_JUSTAS]	0.585 ± 0.077
SAKIEINPEGGQIEMDYELNGKKVKITIQMPPENGMFPVKIEPPDLGKPIEVPYPFNSVDDMLDWAAEASAG [r14_803_TrROS]	0.488 ± 0.11
SSAEELARRLAAELAERLPPGARITDVRIERRADGTVTITVTVELPDGRTLTVTITLDLATGEITIEIHPSA [r9_219_TrROS_Hall]	4.95 ± 0.16
SAGGSAGGSEKEIVLVVKSKEDALKAAEELAKALGLEVEVEVIEVKTLENGEKYVVVKITIKDSAGGSAGGS [r12_924_TrROS_Hall]	3.75 ± 0.16
SAGGSAGGSPVKDPDGKEVVPIQMTFIIRDPEMGKPVLITITFYIDPAPGGKIKDISIDIFPLSAGGSAGGS [r12_0_TrROS]	3.51 ± 0.27
SAGGSAMTPEELANVTVEVVTTTEPASPDLTLPDGTRLPPSTTVTTTTEVVVLPGGELLGTRVTVASAGGSA [r15_12_JUSTAS]	-0.375 ± 0.051
SAGKIPPIKDIEPNPDNGMLMITIPFPDDGKLKVRIENKGQDQEYEFPPGMSFMIPPSNAPIKIEIEWDSAG [r14_96_TrROS]	0.858 ± 0.019
SAGAPSTREFEILELVPLPPGTTAEELRATLEREVELPDDSVARIRVRAVFLSPGPAFALVLYRVEVRESAG [r5_939_TrMRF]	3.15 ± 0.11
SAGGSAGGSKKALVVFYNPETGEVEVLEVEGDADLLKELFEPGTVVEIRVGDEVITIYPEDLKSAGGSAGGS [r20_36_TrMRF]	1.51 ± 0.085
SMKPGDVKVIEIEVEYPWPPGDPEKAKEKVRDLVNSIMQEHGYDVDIPVEIEPRDGRYRVEVPIIIRPPNSA [r9_889_TrROS]	0.0547 ± 0.069
SAGMPAGDFEPVKVEYTIKIPILNEGGGAAAPMPIKVKVEVYRMPNGNLFIKFEIEIPGGNKIEFWFPISAG [r5_580_TrROS]	2.67 ± 0.28
SAPPYYIVIKFKMELPPPTPEDAKEYDPDGEVRRTTVEMTFVIPIPPEDLEDLKDFMQSLGIEEIEIFKSAG [r14_509_TrROS]	2.05 ± 0.087
SAGGSAGGSANAKIPDGQKVTLDFRVMIMMRMWQFDENGGKMEPRMMMIPIEVEIEIKIPPNASAGGSAGGS [r12_668_TrROS]	3.46 ± 0.1
SAGEKTVKIKLPNTKTITVKVKKNEKKILYLPNGEKILITDVKKGKVSLKKGITYVKDKNGKWYPLKYKSAG [r5_417_TrMRF]	0.332 ± 0.15
SAANPKDIVKAEIEIPGKYGAKFTVYTLPDGTVIVPAEVTLIEGDKPVKKPLVLVVDASTGKILAIADASAG [r14_630_TrMRF]	1.09 ± 0.033
SAGGSAGGSKKKITRIVITDFDPETGKVTVRIRNENGEEETIEVETLEELKELFPDVEVEVIPSAGGSAGGS [r12_403_TrROS_Hall]	2.45 ± 0.049
SAGGSAGGSSSSTLISVEPSPGIVTVERPLSLDPVPVVERRIMTVSPSSSLSVTETSVFPVSLLSAGGSAGG [r6_970_JUSTAS]	0.818 ± 0.095
SAGGSAKLNITKILSVEFSEDGTIRIKVENENGELYELEIKVKVIPPPEKPEIDPKYLTPEDLEKYSAGGSA [r15_41_TrMRF]	1.43 ± 0.029
SAGGSAGGSASIELPPDATVTLTTLDPATGTVTTTTVKVDSTGTTTLATTTTTVDPASAAAASAGGSAGGSA [r18_248_JUSTAS]	1.27 ± 0.055

Experiment: folding stability dG unfold from chymotrypsin proteolysis; higher = more stable
In short: as §1

Sequence	folding stability dG unfold [kcal/mol]
SAGGSAGGSKKVEIKVKVKITNENGETLEVTATIVFDEKTGELYIYDEKTGKVYKISLDDIEPSAGGSAGGS [r12_772_TrROS_Hall]	3.94 ± 0.077
SAGGSAGGIYIFFPPEDLEPIAPFTITIEVKRRDPDGDEPQPRKQTIPIRIYRAPNNNLMIEPGSAGGSAGG [r6_278_TrROS]	0.919 ± 0.19
SAGGKKKTAEELAEELKKKLEELGFKVVKIEKLPDGTVLITFEDGYVIKFDVKTGKITIMPKEELEKLSAGG [r13_717_TrROS_Hall]	2.16 ± 0.029
SAGGFRIERDGDYLRIEIRVNDPPGQPVEEAKNIMKQLFGFKDIKVDEIEPNPNGQAEIEIEIPFPKSAGGS [r16_234_TrROS]	-0.3 ± 0.29
SASNKPRTIEVPIMIPPDDLKEHSPEEFIDWIANELGLPPGKDIKIDVDIEPFEHDGRPYYIIPARIQVSAG [r14_334_TrROS]	-0.294 ± 0.32
SAGGSAGGEDKYLVVEFTVPEGKAEEFIAEVKKKIPPNWKIERVEIVEKTEDGLYRVRVVLKPGSAGGSAGG [r6_340_TrMRF]	4.88 ± 0.049
SAGKKQEVTIMIPIRGPAQAREQVEEFANDFPIKPTRVHPNPNKNHYWVMVTMKVPGAKIKIMIWIPPSAGG [r19_262_TrROS]	4.19 ± 0.057
MVELVEVTRENGLVTVTVANPIPGATLTVEVRDPEGKVLASSTSPSPTVTVTAEIPPDEDFSVTVTQTPPAS [r1_382_JUSTAS]	3.99 ± 0.2
SAGGSAGGSAGDEKYTLTVTIPVPKNAPVLVGAEKGYEVIDLNPDAPVEEGYITVKVEFGSAGGSAGGSAGG [r11_701_TrMRF]	-0.833 ± 0.14
SAGGKKFKIKEITITYNPDADTVTMTVKLDDGTTVELTFNKETKKLTVKVINKDTGEEKEFEFTLPDSAGGS [r8_363_TrROS_Hall]	4.9 ± 0.25
SAGGSAKVIMFPSLEEALDLAKEAMGHGKPIQIFLPDGYMIEIEVKPDPDGKPKIDIKWRKLPPDDSAGGSA [r15_761_TrROS]	2.8 ± 0.074
SAGGKEIEELAKKLAEELGVEVVKVEVEKVGPDTVKVTVTLKDGKKIKIEIKKKKDGSYEIKVEIEPSAGGS [r8_284_TrROS_Hall]	2.63 ± 0.22
SAGKSIKIPYIIRFPSPNGEPHLMRIKEVTINPKPGMVKIKFQMPGKKQTHTVPPNNIEILPDPEEILKSAG [r5_15_TrROS]	-0.0282 ± 0.33
SAGGSAGGSKITSIQPHDGFWRIEIKPDGKPQERWINMDELPPNIKIPPGYKVKIEPFSPGDMSAGGSAGGS [r12_1005_TrROS]	-0.769 ± 0.92
SAGGSAGGSAGMKVEIEVYELPGGERPVKITVTYENKPKEYEKEAETEEEAEEFAKELLESAGGSAGGSAGG [r11_560_JUSTAS]	0.039 ± 0.58
SAGGGSYTIVVELGDKKVVFEIDKEEAVEEAVAKLPELGLEVEVLKKEKVLNEDGKPSVLVEVKVKPSAGGS [r8_336_TrMRF]	1.12 ± 0.059
SAGGLSGEAKLVEAEFEPETGTVRVFAEAGDELLTFEFKGTPFLPPIPASISPESLEKDEPVIRVSGSAGGS [r16_809_TrMRF]	0.143 ± 0.14
SAGGSAGGSASSVPARLPDATVLEVTTDPATGLQTALLRFPDGSEVVVTHYPDGSVEVRPLSAGGSAGGSAG [r3_348_JUSTAS]	2.67 ± 0.028
SAGGSAKTISIIIPFKGLTPEQAIEIAKELEKLLGTKAKIESIPGKGYILVTLELPNKTSYIIIPGSAGGSA [r15_168_TrMRF]	2.08 ± 0.039
SAGGSAGGSAMTFKSPEEAKKAAEELEKKTGYKIKITKIEVNEDGEKTVKIEILPPGEKLKSAGGSAGGSAG [r3_59_TrROS_Hall]	0.544 ± 0.12
SMRIHDSNGQSYTIMIRTPDPNVTPEKIVKAIDEAGYKVTEIQRPPEKGHVHINIRVRDRERAIEAIKELSA [r9_1154_TrROS]	-0.253 ± 0.18
